Measured values from article PMC4533773 (International Journal of Molecular Medicine, 2015).

Target: T1, AIM (analyte of the BLI experiment) (UniProt Q9QWK4 22-352)
T1 sequence (looked up): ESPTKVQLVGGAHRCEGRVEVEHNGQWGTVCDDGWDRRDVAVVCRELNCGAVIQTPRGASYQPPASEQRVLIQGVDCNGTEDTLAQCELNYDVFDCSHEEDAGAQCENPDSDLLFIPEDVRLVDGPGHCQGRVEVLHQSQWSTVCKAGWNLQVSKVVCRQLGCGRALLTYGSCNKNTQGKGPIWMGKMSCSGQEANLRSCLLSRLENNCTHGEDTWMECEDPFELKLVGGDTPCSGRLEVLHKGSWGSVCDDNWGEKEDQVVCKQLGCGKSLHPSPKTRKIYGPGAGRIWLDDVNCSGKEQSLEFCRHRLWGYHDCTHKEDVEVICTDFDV
Assay: BLI

B1: Biotinylated IGFBP-4 (natural protein, UniProt P47879 22-254, looked up)
chain: DEAIHCPPCSEEKLARCRPPVGCEELVREPGCGCCATCALGLGMPCGVYTPRCGSGMRCYPPRGVEKPLRTLMHGQGVCTELSEIEAIQESLQTSDKDESEHPNNSFNPCSAHDHRCLQKHMAKIRDRSKMKIVGTPREEPRPVPQGSCQSELHRALERLAASQSRTHEDLFIIPIPNCDRNGNFHPKQCHPALDGQRGKCWCVDRKTGVKLPGGLEPKGELDCHQLADSFQE
modifications: biotin (labelled after purification; sites not stated)
  Kd: 25.3 nM
  koff: 0.000999 s⁻¹
  kon: 39600 M⁻¹ s⁻¹
